Laboratory results taken from patent US20140322218A1 (Amgen, published 2014).

Tests used:
Assay in all cases: FACS, transfected 293T
[1] = target: T1, muCDH19(44-139)::huCDH19(142-249)::muCDH19(248-770), Flag-tagged, on 293T cells (human/mouse chimera)
T1 construct: also called Hu EC2; C137913
T1 chain: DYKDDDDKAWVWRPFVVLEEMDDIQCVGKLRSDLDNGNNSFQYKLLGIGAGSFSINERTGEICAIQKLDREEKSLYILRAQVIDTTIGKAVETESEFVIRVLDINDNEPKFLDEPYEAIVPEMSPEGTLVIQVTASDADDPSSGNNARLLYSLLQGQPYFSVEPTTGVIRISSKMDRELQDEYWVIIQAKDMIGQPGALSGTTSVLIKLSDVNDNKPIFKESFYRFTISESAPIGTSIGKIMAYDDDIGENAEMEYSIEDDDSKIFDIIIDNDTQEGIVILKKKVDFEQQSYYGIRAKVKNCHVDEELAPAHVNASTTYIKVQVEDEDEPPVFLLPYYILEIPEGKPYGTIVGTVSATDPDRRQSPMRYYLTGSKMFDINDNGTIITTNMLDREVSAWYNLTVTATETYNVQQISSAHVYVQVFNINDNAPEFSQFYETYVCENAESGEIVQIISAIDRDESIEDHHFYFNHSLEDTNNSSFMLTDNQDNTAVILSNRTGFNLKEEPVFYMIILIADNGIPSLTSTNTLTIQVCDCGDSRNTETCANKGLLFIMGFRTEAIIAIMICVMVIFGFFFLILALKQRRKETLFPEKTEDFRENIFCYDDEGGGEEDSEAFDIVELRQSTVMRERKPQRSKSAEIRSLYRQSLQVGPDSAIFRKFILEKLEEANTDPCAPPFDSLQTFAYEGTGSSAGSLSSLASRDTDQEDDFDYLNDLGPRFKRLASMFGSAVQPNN
Excerpt: (§1) The experiment included assaying the anti-CDH19 antibodies against mouse Cadherin19 to determine suitability for binning on these human/mouse chimeras.

[2] = target: T2, muCDH19(44-362)::huCDH19(365-772), Flag-tagged, on 293T cells (human/mouse chimera)
T2 construct: also called Hu EC4-5; C137917
T2 chain: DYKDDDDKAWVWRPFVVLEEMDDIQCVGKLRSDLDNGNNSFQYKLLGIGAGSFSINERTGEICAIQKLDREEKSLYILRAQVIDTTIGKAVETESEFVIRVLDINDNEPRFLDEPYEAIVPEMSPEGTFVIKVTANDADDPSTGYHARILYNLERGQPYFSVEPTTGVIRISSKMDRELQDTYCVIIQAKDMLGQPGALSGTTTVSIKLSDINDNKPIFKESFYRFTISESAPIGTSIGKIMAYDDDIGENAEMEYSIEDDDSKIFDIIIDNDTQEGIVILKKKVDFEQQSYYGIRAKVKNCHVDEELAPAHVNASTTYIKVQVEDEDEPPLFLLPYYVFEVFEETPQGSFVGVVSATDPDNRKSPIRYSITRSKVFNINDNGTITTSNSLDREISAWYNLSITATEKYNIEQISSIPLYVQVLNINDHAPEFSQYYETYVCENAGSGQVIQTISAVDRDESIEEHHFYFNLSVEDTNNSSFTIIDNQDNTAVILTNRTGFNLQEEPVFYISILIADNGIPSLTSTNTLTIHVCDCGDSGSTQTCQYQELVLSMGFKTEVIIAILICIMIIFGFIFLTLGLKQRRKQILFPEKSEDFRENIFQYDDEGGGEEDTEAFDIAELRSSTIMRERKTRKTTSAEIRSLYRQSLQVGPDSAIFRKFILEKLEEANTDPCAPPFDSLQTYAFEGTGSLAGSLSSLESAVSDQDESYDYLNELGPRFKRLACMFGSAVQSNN
Excerpt: as §1

[3] = target: T3, muCDH19(44-461)::huCDH19(464-772), Flag-tagged, on 293T cells (human/mouse chimera)
T3 construct: also called Hu EC5; C137915
T3 chain: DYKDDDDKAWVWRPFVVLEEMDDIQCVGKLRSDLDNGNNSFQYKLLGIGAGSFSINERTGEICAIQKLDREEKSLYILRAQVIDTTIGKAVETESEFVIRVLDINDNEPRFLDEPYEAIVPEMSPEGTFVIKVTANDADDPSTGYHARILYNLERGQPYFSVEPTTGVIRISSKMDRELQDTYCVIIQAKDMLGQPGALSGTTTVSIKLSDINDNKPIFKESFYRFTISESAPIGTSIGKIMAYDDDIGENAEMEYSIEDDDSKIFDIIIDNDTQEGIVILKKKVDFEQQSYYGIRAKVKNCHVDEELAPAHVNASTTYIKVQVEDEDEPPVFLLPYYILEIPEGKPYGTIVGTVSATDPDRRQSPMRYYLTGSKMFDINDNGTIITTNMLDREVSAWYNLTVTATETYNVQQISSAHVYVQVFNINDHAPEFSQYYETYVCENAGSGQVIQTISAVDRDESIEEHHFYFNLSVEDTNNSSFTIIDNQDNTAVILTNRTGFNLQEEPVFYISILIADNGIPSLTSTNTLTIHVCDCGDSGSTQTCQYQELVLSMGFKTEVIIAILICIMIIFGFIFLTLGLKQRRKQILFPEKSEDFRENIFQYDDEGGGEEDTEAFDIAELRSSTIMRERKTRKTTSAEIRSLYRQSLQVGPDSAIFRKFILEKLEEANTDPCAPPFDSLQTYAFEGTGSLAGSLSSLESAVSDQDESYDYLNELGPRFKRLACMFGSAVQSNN
Excerpt: as §1

Measured: binding result

B1: anti-CDH19 antibody 2G6 (Ab ID 13588) (antibody, human IgG1, lambda, V domains shown)
VH: QVQLVESGGGVVQPGRSLRLSCAASGFTFSSYGMHWVRQAPGKGLEWVAFIWYDGSNKYYADSVKDRFTISRDNSKNTLYLQMKSLRAEDTAVYYCARRAGIIGTIGYYYGMDVWGQGTTVTVSS
VL: SYELTQPPSVSVSPGQTASITCSGDRLGEKYTCWYQQRPGQSPLLVIYQDTKRPSGIPERFSGSNSGNTATLTISGTQAMDEADYYCQAWDSSTVVFGGGTKLTVLG
binds: all assays above
